Measured values as given in patent US20030086932A1.

How the values were obtained:
[1] = target: murine CD28 on murine T cells (murine) (UniProt P31041); assay: cell-based or functional assay
[2] = target: murine CTLA-4 on murine T cells (murine) (UniProt P09793); assay: cell-based or functional assay
UniProt P09793, sequence (P09793 36-223): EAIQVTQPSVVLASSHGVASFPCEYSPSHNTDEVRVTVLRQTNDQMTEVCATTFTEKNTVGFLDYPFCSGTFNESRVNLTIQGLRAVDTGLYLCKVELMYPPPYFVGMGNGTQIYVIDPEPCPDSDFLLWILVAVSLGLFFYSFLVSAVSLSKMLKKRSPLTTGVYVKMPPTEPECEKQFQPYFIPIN

UniProt P31041, sequence (P31041 20-218): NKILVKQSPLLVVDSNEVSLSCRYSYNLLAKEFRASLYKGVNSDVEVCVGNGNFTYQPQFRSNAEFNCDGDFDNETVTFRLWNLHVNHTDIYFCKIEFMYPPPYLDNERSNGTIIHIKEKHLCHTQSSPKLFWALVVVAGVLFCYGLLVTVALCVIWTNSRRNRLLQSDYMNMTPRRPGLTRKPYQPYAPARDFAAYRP

proliferation and cytokine production of pre-activated T cells (increase over mem2C11scFv alone) [1] [fold] | reduction in IL-2 production of pre-activated T cells, with combined mem2C11 and memPVIscFvs [2] [%] | reduction in IL-2 production of pre-activated T cells, with mem2C11 scFv alone [2] [%] | reduction in intensity of the tyrosine-phosphorylated LAT band (photodensitometry, against control scFv) [2] [%] | reduction in intensity of the tyrosine-phosphorylated p23 TCR band (photodensitometry, against control scFv) [2] [%] | reduction in proliferation of pre-activated T cells, with combined mem2C11 and memPVIscFvs [2] [%] | reduction in proliferation of pre-activated T cells, with mem2C11 scFv alone [2] [%] | Substance
10 |  |  |  |  |  |  | memPVIscFv (surface-linked anti-murine CD28 scFv derived from hamster mAb PV-1, GPI anchored, expressed on transiently transfected 293 cells)
 | 69 | 67 | 35 | 85 | 66 | 80 | mem4F10scFv (surface-linked anti-murine CTLA-4 scFv derived from hamster mAb UC10-4F10, anchored by a murine B7-1 derived motif, expressed on transiently transfected 293 cells) (from UniProt Q00609 247-302)
